Data from patent publication US20170298096A1 (CANIMGUIDE THERAPEUTICS, published 2017).
No end group written: not given here.

T1: His-tagged P3028 (human, also: His-tag, terminus and sequence not given here)
T1 construct: used in solution in the PEPSCAN (rampo) ELISA; also called PGE73; His-tag-P3028; not shown: His tag
T1 peptide: VFDEFKPLVEEPQNLIK


Molecular target: T1, His-tagged P3028
Assay: PEPSCAN ELISA (rampo)
Procedure: After washing, the peroxidase substrate 2,2′-azine-di-3-ethylbenzthiazoline sulfonate (ABTS) and 2 μL of 3% H2O2 were added. The binding capacity of the mAb was measured as a color development at 405 nm (optical density, OD405). The color development was quantified with a charge-coupled device (CCD)—camera and an image processing system.
The OD405-values obtained by a CCD-camera was considered as raw data values (“rampo values,” “rampo units,” or “rampo scores”). […] First the CCD-camera made a picture of the card before peroxidase coloring and then again a picture after the peroxidase coloring. […] These values were copied into an excel file and labeled as a raw data file. One follow-up manipulation was allowed. Sometimes a well can contain an air-bubble resulting in a false-positive value. If manual inspection of the cards detect an air-bubble the value are set to 0 for that well.

Q: For KKLDTFFPKLSLFTER (also called P28R with P at position 8) [SEQ ID NO 329], which RAMPO Score is on record?
A: ≥ 302 rampo units

Q: And the “rampo score relative to the P28R control sample” value?
A: ≥ 98 % of P28R control

Q: For KKLDTFFVKLSIFTER [SEQ ID NO 352], which “rampo score relative to the P28R control sample” value is on record?
A: ≥ 98 % of P28R control

Q: KKLDTFFVKFSLFTER [SEQ ID NO 333] was tested. Which “rampo score relative to the P28R control sample” value did it give?
A: ≥ 98 % of P28R control

Q: For KKLDTFFVKLSSFTER [SEQ ID NO 357], which “rampo score relative to the P28R control sample” value is on record?
A: ≥ 98 % of P28R control

Q: With KKLDTFFVKLSLFNER [SEQ ID NO 382] as the binder, how does the “rampo score relative to the P28R control sample” value read?
A: ≥ 98 % of P28R control

Q: How did the “rampo score relative to the P28R control sample” value turn out when KKLDTFFVKLTLFTER [SEQ ID NO 349] was run?
A: ≥ 98 % of P28R control

Q: With KKLDTFFVKLSLPTER [SEQ ID NO 369] as the binder, how does the “rampo score relative to the P28R control sample” value read?
A: ≥ 98 % of P28R control

Q: Which “rampo score relative to the P28R control sample” value does the source give for KKLDTFFVKLMLFTER [SEQ ID NO 346] here?
A: ≥ 98 % of P28R control

Q: For KKLDTFFVKLSNFTER [SEQ ID NO 354], which “rampo score relative to the P28R control sample” value is on record?
A: ≥ 98 % of P28R control

Q: KKLDTFFVKLSLWTER [SEQ ID NO 375] was tested. Which “rampo score relative to the P28R control sample” value did it give?
A: ≥ 98 % of P28R control

Q: KKLDTFFVKLSLNTER [SEQ ID NO 368] was tested. Which “rampo score relative to the P28R control sample” value did it give?
A: ≥ 98 % of P28R control

Q: With KKLDTFFVKSSLFTER [SEQ ID NO 341] as the binder, how does the “rampo score relative to the P28R control sample” value read?
A: ≥ 98 % of P28R control

Q: KKLDTFFVKASLFTER [SEQ ID NO 332] was tested. Which “rampo score relative to the P28R control sample” value did it give?
A: ≥ 98 % of P28R control

Q: KKLDTFFVKRSLFTER [SEQ ID NO 340] was tested. Which “rampo score relative to the P28R control sample” value did it give?
A: ≥ 98 % of P28R control

Q: Which “rampo score relative to the P28R control sample” value does the source give for KKLDTFFVKLSMFTER [SEQ ID NO 353] here?
A: ≥ 98 % of P28R control

Q: For KKLDTFFVKLSLRTER [SEQ ID NO 371], which “rampo score relative to the P28R control sample” value is on record?
A: ≥ 98 % of P28R control

Q: KKLDTFFVKLSLFMER [SEQ ID NO 381] was tested. Which “rampo score relative to the P28R control sample” value did it give?
A: ≥ 98 % of P28R control

Q: With KKLDTFFVKLSLSTER [SEQ ID NO 372] as the binder, how does the “rampo score relative to the P28R control sample” value read?
A: ≥ 98 % of P28R control

Q: KKLDTFFVKLSLITER [SEQ ID NO 365] was tested. Which “rampo score relative to the P28R control sample” value did it give?
A: ≥ 98 % of P28R control

Q: How did the “rampo score relative to the P28R control sample” value turn out when KKLDTFFVKLSLFTDR [SEQ ID NO 387] was run?
A: ≥ 98 % of P28R control

Q: KKLDTFFVKLSVFTER [SEQ ID NO 359] was tested. Which “rampo score relative to the P28R control sample” value did it give?
A: ≥ 98 % of P28R control

Q: For KKLDTFFVKLSLCTER [SEQ ID NO 362], which “rampo score relative to the P28R control sample” value is on record?
A: ≥ 98 % of P28R control

Q: Which “rampo score relative to the P28R control sample” value does the source give for KKLDTFFVKLSLFPER [SEQ ID NO 383] here?
A: ≥ 98 % of P28R control

Q: With KKLDTFFVKLSLFFER [SEQ ID NO 376] as the binder, how does the “rampo score relative to the P28R control sample” value read?
A: ≥ 98 % of P28R control

Q: With KKLDTFFVKLSLTTER [SEQ ID NO 373] as the binder, how does the “rampo score relative to the P28R control sample” value read?
A: ≥ 98 % of P28R control

Q: For KKLDTFFVKPSLFTER [SEQ ID NO 338], which “rampo score relative to the P28R control sample” value is on record?
A: ≥ 98 % of P28R control

Q: With KKLDTFFVKLSLHTER [SEQ ID NO 364] as the binder, how does the “rampo score relative to the P28R control sample” value read?
A: ≥ 98 % of P28R control

Q: Which “rampo score relative to the P28R control sample” value does the source give for KKLDTFFVKTSLFTER [SEQ ID NO 342] here?
A: ≥ 98 % of P28R control

Q: How did the “rampo score relative to the P28R control sample” value turn out when KKLDTFFVKNSLFTER [SEQ ID NO 337] was run?
A: ≥ 98 % of P28R control

Q: With KKLDTFFVKLSLFGER [SEQ ID NO 377] as the binder, how does the “rampo score relative to the P28R control sample” value read?
A: ≥ 98 % of P28R control

Q: KKLDTFFVKLSLFSER [SEQ ID NO 384] was tested. Which “rampo score relative to the P28R control sample” value did it give?
A: ≥ 98 % of P28R control

Q: Which “rampo score relative to the P28R control sample” value does the source give for KKLDTFFVKISLFTER [SEQ ID NO 335] here?
A: ≥ 98 % of P28R control

Q: With KKLDTFFVKLSLLTER [SEQ ID NO 366] as the binder, how does the “rampo score relative to the P28R control sample” value read?
A: ≥ 98 % of P28R control

Q: With KKLDTFFVKLSLFLER [SEQ ID NO 380] as the binder, how does the “rampo score relative to the P28R control sample” value read?
A: ≥ 98 % of P28R control

Q: With KKLDTFFVKLQLFTER [SEQ ID NO 348] as the binder, how does the “rampo score relative to the P28R control sample” value read?
A: ≥ 98 % of P28R control

Q: Which “rampo score relative to the P28R control sample” value does the source give for KKLDTFFVRLSLFTER [SEQ ID NO 331] here?
A: ≥ 98 % of P28R control

Q: How did the “rampo score relative to the P28R control sample” value turn out when KKLDTFFVKVSLFTER [SEQ ID NO 343] was run?
A: ≥ 98 % of P28R control

Q: KKLDTFFVKQSLFTER [SEQ ID NO 339] was tested. Which “rampo score relative to the P28R control sample” value did it give?
A: ≥ 98 % of P28R control

Q: How did the “rampo score relative to the P28R control sample” value turn out when KKLDTFFVKYSLFTER [SEQ ID NO 344] was run?
A: ≥ 98 % of P28R control

Q: KKLDTFFVKLNLFTER [SEQ ID NO 347] was tested. Which “rampo score relative to the P28R control sample” value did it give?
A: ≥ 98 % of P28R control

Q: KKLDTFFVKLSLFVER [SEQ ID NO 385] was tested. Which “rampo score relative to the P28R control sample” value did it give?
A: ≥ 98 % of P28R control

Q: For KKLDTFFVKLSLQTER [SEQ ID NO 370], which “rampo score relative to the P28R control sample” value is on record?
A: ≥ 98 % of P28R control

Q: Which “rampo score relative to the P28R control sample” value does the source give for KKLDTFFVKLSRFTER [SEQ ID NO 356] here?
A: ≥ 98 % of P28R control

Q: Which “rampo score relative to the P28R control sample” value does the source give for KKLDTFFVKLHLFTER [SEQ ID NO 345] here?
A: ≥ 98 % of P28R control

Q: Which “rampo score relative to the P28R control sample” value does the source give for KKLDTFFVKLSWFTER [SEQ ID NO 360] here?
A: ≥ 98 % of P28R control

Q: How did the “rampo score relative to the P28R control sample” value turn out when KKLDTFFVKLSQFTER [SEQ ID NO 355] was run?
A: ≥ 98 % of P28R control

Q: Which “rampo score relative to the P28R control sample” value does the source give for KKLDTFFVKLSTFTER [SEQ ID NO 358] here?
A: ≥ 98 % of P28R control

Q: KKLDTFFRKLSLFTER (also called P28R with R at position 8) [SEQ ID NO 330] was tested. Which RAMPO Score did it give?
A: ≥ 302 rampo units

Q: What about the “rampo score relative to the P28R control sample” value of the same binder?
A: ≥ 98 % of P28R control

Q: Which “rampo score relative to the P28R control sample” value does the source give for KKLDTFFVKLSLMTER [SEQ ID NO 367] here?
A: ≥ 98 % of P28R control

Q: KKLDTFFVKLSLFIER [SEQ ID NO 379] was tested. Which “rampo score relative to the P28R control sample” value did it give?
A: ≥ 98 % of P28R control

Q: How did the “rampo score relative to the P28R control sample” value turn out when KKLDTFFVKLSHFTER [SEQ ID NO 351] was run?
A: ≥ 98 % of P28R control

Q: With KKLDTFFVKMSLFTER [SEQ ID NO 336] as the binder, how does the “rampo score relative to the P28R control sample” value read?
A: ≥ 98 % of P28R control

Q: For KKLDTFFVKGSLFTER [SEQ ID NO 334], which “rampo score relative to the P28R control sample” value is on record?
A: ≥ 98 % of P28R control

Q: With KKLDTFFVKLSLFWER [SEQ ID NO 386] as the binder, how does the “rampo score relative to the P28R control sample” value read?
A: ≥ 98 % of P28R control

Q: Which “rampo score relative to the P28R control sample” value does the source give for KKLDTFFVKLSLVTER [SEQ ID NO 374] here?
A: ≥ 98 % of P28R control

Q: For KKLDTFFVKLSAFTER [SEQ ID NO 350], which “rampo score relative to the P28R control sample” value is on record?
A: ≥ 98 % of P28R control

Q: How did the “rampo score relative to the P28R control sample” value turn out when KKLDTFFVKLSLFHER [SEQ ID NO 378] was run?
A: ≥ 98 % of P28R control

Q: For KKLDTFFVKLSLGTER [SEQ ID NO 363], which “rampo score relative to the P28R control sample” value is on record?
A: ≥ 98 % of P28R control

Q: How did the “rampo score relative to the P28R control sample” value turn out when KKLDTFFVKLSLATER [SEQ ID NO 361] was run?
A: ≥ 98 % of P28R control
